Among the data in the supplement of paper PMC12042874 are amyloid nucleation score values, retold here.

± gives the uncertainty stated by the source.

This series can be described thus: amyloid nucleation score (Sup35N fusion, yeast selection) (log enrichment); library NNK3; higher = more nucleation; inactive = no reads after selection. The method in brief:
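Using DiMSum, nucleation scores were taken as the log enrichment of output over input reads, centred on the mode score of non-aggregating sequences. The input and output reads came from Illumina sequencing of plasmid inserts, with sequences under 100 input reads excluded. The yeast were psi-negative, expressed Sup35N fused to peptides of 20 random codons, were induced with 100 μM copper sulfate for 24 hours, and were grown 7 days at 30°C on medium lacking adenine and uracil.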
In turn, HNCPFFSTDMKCSKNIHIFG had an amyloid nucleation score of 1.78 ± 0.077.

The substance YLDNVFNGPAFLYSGSRDR had an amyloid nucleation score of 1.02 ± 0.18. To GCLDQFGCGGTPVKVFATNV belongs -1.39 ± 2.5; to VICGGNRLRSIQWTFWLWDN, “inactive”. The value for LGFSVYSLA was “inactive”.

As to RSWSETC, the amyloid nucleation score entry is “inactive”. For the substance RLLMKV, the amyloid nucleation score result is “inactive”.

Take LYSFSANNDMVHMYRNQVRF: the amyloid nucleation score entry is “inactive”.

VLYGTSASWSEFEFDHVIHV: the amyloid nucleation score entry is “inactive”.

As to PFENHSYVCSGSRYNGTLWE, the amyloid nucleation score result is “inactive”. To LINKHNRVMYLAICA belongs “inactive”; to DCVGYRGGDGFAWTADELWS, “inactive”.

Consider EFMILDLCMG, for which the amyloid nucleation score entry is “inactive”. To IEDEFEAMSHCLECRNFRKL belongs “inactive”; to KKQGSWRKNITISRVCVVLG, “inactive”; to WRVHHFGWAGEY, “inactive”. The value for IRSIM was “inactive”; that for VRDVDKMC was “inactive”. Consider DFNLFKAQIYLWNSFDVSEF, for which the amyloid nucleation score is 0.99 ± 0.14. To QVGSLFWLRY belongs “inactive”. The value for SMCGYWRHI was “inactive”. Take GDVLLY: the amyloid nucleation score entry was “inactive”.

IYSLYRCPFAVCLSSNWSCF: the amyloid nucleation score was determined as 1.78 ± 0.11. The value for NKKDHAYKWISVD was “inactive”. On to RGMKDCCTRWALRYWDVSVL, for which the amyloid nucleation score result is “inactive”.

As to IYSIVFFSRSLTVRVFGAHY, the amyloid nucleation score result is “inactive”. In turn, LSWDVYSRHFG had an amyloid nucleation score of 2.31 ± 0.076. Consider LDLLSAVGGVQRLIIHCCWM, for which the amyloid nucleation score entry was “inactive”. Take LFDFYRNSVTD: the amyloid nucleation score result was “inactive”.

Turning to GLISPRYATSSWLCQPIINF, the amyloid nucleation score result is “inactive”. The value for ILTEYLPSTS was “inactive”; that for AAYGELL was “inactive”; that for ANSYLTYN was “inactive”. The value for ISCSKLTR was “inactive”; that for NWYDSWRVFAQNKDCSLWA was “inactive”. MRGWLRLSELCKGVLIVGFA: the amyloid nucleation score entry was “inactive”. On to SFQFMFSRSSNRDFCILIQR, for which the amyloid nucleation score entry is “inactive”.

As to LELGIYHLMERGIL, the amyloid nucleation score entry was “inactive”. Consider NSGGFSKDDGNGYKA, for which the amyloid nucleation score entry was “inactive”. As to FISLPWYCQLVMVRDTSIIK, the amyloid nucleation score entry was “inactive”. The value for RTSYNTFGGFYTNGWTLILR was “inactive”. In the case of VKVEPVRLLWTHVWKS, the amyloid nucleation score entry is “inactive”. For AFMNWVARRKTRWGGLYGGN, the amyloid nucleation score entry was “inactive”. The value for GNLWT was 0.637 ± 0.12. The value for NVMIDDVLARYYRVRRGLVG was “inactive”. To VFPFIRNKV belongs “inactive”.

Regarding YNVSINYVGENDGWEACFLS, the amyloid nucleation score was 0.666 ± 0.12. To ASLRCINFMCWLSQTLGVLL belongs “inactive”. The value for MYLPWISSSGVLNRTSMSFY was 0.668 ± 0.12; that for YRGLGRDSHTHCRNHVLLTL was “inactive”.

On to EDYLFHLLRDPRRTGWLIWF, for which the amyloid nucleation score result was “inactive”.

As for IMKACGDK, the amyloid nucleation score entry was “inactive”. With ACAFS, the amyloid nucleation score result was “inactive”. To EGTRLTSYM belongs “inactive”; to YYVSRVSKMCWLRDVRWISI, “inactive”.

For GFLLFLAVWRDTIGIVLVVL, the amyloid nucleation score entry was “inactive”.

As to GVAIAYHEFVDCSFFNYNIV, the amyloid nucleation score turned out to be 2.38 ± 0.054. In the case of RISAFWLYTACQFGSDLDTC, the amyloid nucleation score entry was “inactive”. The value for TGVNFGRLLLISRSVLGVC was “inactive”; that for VRNILRLNRFCWCKTLQKIA was “inactive”. In the case of IMCSGFFDTVKFGWSLLSFS, the amyloid nucleation score came out at 0.521 ± 0.24. The value for GLEVLVISIGAWLSLTLSFQ was “inactive”.

In the case of WCSSWSRILTQVACVRHRKW, the amyloid nucleation score is 0.926 ± 0.14.

In the case of IYVTIEFASIVCSCWESLDR, the amyloid nucleation score is -0.091 ± 0.8. The value for TRRATGYFHFS was “inactive”; that for CVCPDNDSPCDLGWVRRGNR was “inactive”. As to SFPLPS, the amyloid nucleation score result is “inactive”. YFSMIVVGCVNFKELPDNRV: the amyloid nucleation score was 1.78 ± 0.086. To ARKMRKAMYLRGTSALVPCL belongs “inactive”; to PHCVWDFLVRYGMDENRVKY, “inactive”; to TAMYVMSFCW, “inactive”. For SRMPCRFM, the amyloid nucleation score entry is “inactive”.

In the case of TFIFVLVSC, the amyloid nucleation score entry is “inactive”. As for RKDLCDFSYLHGDPGAKPEL, the amyloid nucleation score result was “inactive”. Take NHYWQ: the amyloid nucleation score result is “inactive”. On to LSLLFALLAFEGVRASLSWG, for which the amyloid nucleation score entry was “inactive”.

With VWVIVKTNLLLVAGQGGAFG, the amyloid nucleation score turned out to be 0.693 ± 0.15. On to VLCVETTCPVGDIMECCLLP, for which the amyloid nucleation score entry is “inactive”. On to CLFSLPWWCSMM, for which the amyloid nucleation score result was “inactive”.

IRRHYAYCYNISTITVIAEI: the amyloid nucleation score entry is “inactive”. For FCMMKRSFCPDLNKLATDLV, the amyloid nucleation score result is “inactive”. To VKRGCCLVICWARFNVSEAH belongs “inactive”; to YKANFMGFSIYKRVGTRVWQ, 0.15 ± 0.75. To MYERRSLDKKVHRCYILALT belongs “inactive”; to YLICLVWKELLARAHIAELC, 0.28 ± 0.2. Turning to KLHPTYLCNQNPRELWLITY, the amyloid nucleation score entry is “inactive”. As for AIRLYLDGIHQMHYYHTLCL, the amyloid nucleation score result was “inactive”. The value for TESCVDSMVAFHNLPYLFRL was “inactive”.

Turning to RSQWLFISKKFDLAIYIAV, the amyloid nucleation score entry is “inactive”. The value for LMILLGSKFRNANGTTSMLK was “inactive”. To SGLKTFLEMSLHLCVLLARA belongs “inactive”; to NIIVWPVCGILLYTHSIS, “inactive”.

For GVWRLATHGYSQ, the amyloid nucleation score result was “inactive”. To RYYGSFVEPRSFSRN belongs “inactive”; to MVDSRLNSSLNYSLCLSDVK, “inactive”; to KFGWWLFDSVSDTNLWYRRS, “inactive”. The value for KRYNNIAYFVYLLFSLGVTT was “inactive”; that for SWMDRILVRYWVVLDNRNFV was “inactive”; that for TSTRHDGGFMVMWYLLGLTR was “inactive”. In the case of MSVQHER, the amyloid nucleation score entry was “inactive”. To GQEGSRN belongs 0.186 ± 0.53; to TLARQWSDP, “inactive”. For the substance LIFTTTRSLFTALPGFEYKD, the amyloid nucleation score result is “inactive”.

As to SEAPSSR, the amyloid nucleation score result is “inactive”. To AGDLNYRSGLSGRNYARGFT belongs “inactive”; to LVFHQDMCGNYYFRH, 0.953 ± 0.13. The value for YRAFTFIGCLNGLTNQHFFY was 2.4 ± 0.059.

On to TFSNYALNVSAYRVDIFEML, for which the amyloid nucleation score was 0.979 ± 0.14.

For the substance GEHSGRYYSNVSKNESMGVI, the amyloid nucleation score result is “inactive”. In the case of IALGWFVIRFDEVVKLFKMF, the amyloid nucleation score result was “inactive”. Turning to YCGLVHVSHLGVGREIGRRV, the amyloid nucleation score result was “inactive”. The value for RDRSVKRVVHSGFRFSIGEA was “inactive”. To FMSRMRKWFGCSNTHSSGTR belongs 1.77 ± 0.078. The value for THFNGEFWALSTVCMWGGRV was 0.06 ± 0.69; that for YFSKVIVDLKNSCIL was “inactive”; that for DRYFLVDAKMFTGRTYLILG was -0.416 ± 0.88. For DARNET, the amyloid nucleation score entry was “inactive”. As to QVFHFGCSEDARCVCRVHM, the amyloid nucleation score entry is “inactive”. The value for DFRSSRLHSIITTQFIYFYD was “inactive”; that for NSDVYVSFLSVCVFAVRCLL was “inactive”; that for CALGEKLFSGSAYMVYPG was “inactive”.

Regarding TCTEGMGCPMSKAARVLLTR, the amyloid nucleation score result is “inactive”. To TRLTL belongs “inactive”; to YVNSNWNNISAQASNSFSGR, “inactive”; to QNMFSSANRLMSTC, “inactive”.

Turning to IYLKYSSYRNSLIILAVD, the amyloid nucleation score result is “inactive”. To NAEVALDHSSDLDS belongs “inactive”. Turning to INCLRSLTNCINSCRPIIVL, the amyloid nucleation score result was “inactive”. The value for GGKAISNFEFLLILGPY was “inactive”; that for LRDMTGILPRGRFADETSRF was “inactive”; that for VRVTLWYQTNMGIFEGHSRN was “inactive”.
